Experimental data published in patent publication US20250320281A1.

Experiments:
WT JR-FL gp120 (HIV-1) = experiment: ELISA, antigen-coated wells
[1] = target: HIV-1 Env of pseudovirus isolate MGRM-G-001 (HIV-1); experiment: cell-based or functional assay
[2] = target: HIV-1 Env of pseudovirus isolate MGRM-G-016 (HIV-1); experiment: cell-based or functional assay
[3] = target: HIV-1 Env of pseudovirus isolate MGRM-G-027 (HIV-1); experiment: cell-based or functional assay
[4] = target: HIV-1 Env of pseudovirus isolate MGRM-G-015 (HIV-1); experiment: cell-based or functional assay
[5] = target: envelope of aMLV pseudovirus (negative control); experiment: cell-based or functional assay
[6] = target: HIV-1 Env of pseudovirus isolate MGRM-G-006 (HIV-1); experiment: cell-based or functional assay
[7] = target: HIV-1 Env of pseudovirus isolate MGRM-G-017 (HIV-1); experiment: cell-based or functional assay
[8] = target: HIV-1 Env of pseudovirus isolate MGRM-G-014 (HIV-1); experiment: cell-based or functional assay
[9] = target: HIV-1 Env of pseudovirus isolate MGRM-G-009 (HIV-1); experiment: cell-based or functional assay
[10] = target: HIV-1 Env of pseudovirus isolate MGRM-G-013 (HIV-1); experiment: cell-based or functional assay
[11] = target: HIV-1 Env of pseudovirus isolate MGRM-G-004 (HIV-1); experiment: cell-based or functional assay
[12] = target: HIV-1 Env of pseudovirus isolate MGRM-G-019 (HIV-1); experiment: cell-based or functional assay
[13] = target: HIV-1 Env of pseudovirus isolate MGRM-G-011 (HIV-1); experiment: cell-based or functional assay
[14] = target: HIV-1 MGRM-C-028 Env (pseudovirus) (HIV-1); experiment: cell-based or functional assay
[15] = target: HIV-1 APV6 Env (pseudovirus) (HIV-1); experiment: cell-based or functional assay
[16] = target: HIV-1 MGRM-C-026 Env (pseudovirus) (HIV-1); experiment: cell-based or functional assay
[17] = target: HIV-1 JRCSF Env (pseudovirus) (HIV-1) (UniProt P20871); experiment: cell-based or functional assay
[18] = target: HIV-1 93IN905 Env (pseudovirus) (HIV-1); experiment: cell-based or functional assay
[19] = target: HIV-1 92RW020 Env (pseudovirus) (HIV-1); experiment: cell-based or functional assay
[20] = target: HIV-1 92UG024 Env (pseudovirus) (HIV-1); experiment: cell-based or functional assay
[21] = target: HIV-1 92UG005 Env (pseudovirus) (HIV-1); experiment: cell-based or functional assay
[22] = target: HIV-1 94UG103 Env (pseudovirus) (HIV-1); experiment: cell-based or functional assay
[23] = target: HIV-1 MGRM-D-018 Env (pseudovirus) (HIV-1); experiment: cell-based or functional assay
[24] = target: HIV-1 92TH021 Env (pseudovirus) (HIV-1); experiment: cell-based or functional assay
[25] = target: HIV-1 CMU02 Env (pseudovirus) (HIV-1); experiment: cell-based or functional assay
[26] = target: HIV-1 NL43 Env (pseudovirus) (HIV-1); experiment: cell-based or functional assay
[27] = target: HIV-1 MGRM-A-010 Env (pseudovirus) (HIV-1); experiment: cell-based or functional assay
[28] = target: HIV-1 MGRM-C-027 Env (pseudovirus) (HIV-1); experiment: cell-based or functional assay

Chain of 5345_I01 (PGT-137) (antibody) (VH): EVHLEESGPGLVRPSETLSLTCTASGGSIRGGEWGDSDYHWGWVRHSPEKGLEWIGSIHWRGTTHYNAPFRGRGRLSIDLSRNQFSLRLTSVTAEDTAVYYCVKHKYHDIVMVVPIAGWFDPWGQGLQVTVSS
Chain of 5345_I01 (PGT-137) (antibody) (VL): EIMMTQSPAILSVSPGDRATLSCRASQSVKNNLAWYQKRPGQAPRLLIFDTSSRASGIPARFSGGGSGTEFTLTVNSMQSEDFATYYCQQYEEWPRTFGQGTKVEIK
Chain of 5329_C19 (PGT-136) (antibody) (VH): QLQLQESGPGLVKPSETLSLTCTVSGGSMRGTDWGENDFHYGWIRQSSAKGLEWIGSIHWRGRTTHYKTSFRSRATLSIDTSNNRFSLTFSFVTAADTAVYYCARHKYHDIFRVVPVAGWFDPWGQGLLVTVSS
Chain of 5329_C19 (PGT-136) (antibody) (VL): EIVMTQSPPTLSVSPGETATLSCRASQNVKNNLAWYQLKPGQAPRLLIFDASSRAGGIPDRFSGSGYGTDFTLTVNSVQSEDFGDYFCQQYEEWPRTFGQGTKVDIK

Row | Substance | EC50 (WT JR-FL gp120 (HIV-1)) [µg/mL] | IC50 (µg/mL), pseudovirus neutralization [1] [µg/mL] | IC50 (µg/mL), pseudovirus neutralization [2] [µg/mL] | IC50 (µg/mL), pseudovirus neutralization [3] [µg/mL] | IC50 (µg/mL), pseudovirus neutralization [4] [µg/mL] | IC50 (µg/mL), pseudovirus neutralization [5] [µg/mL] | IC50 (µg/mL), pseudovirus neutralization [6] [µg/mL] | IC50 (µg/mL), pseudovirus neutralization [7] [µg/mL] | IC50 (µg/mL), pseudovirus neutralization [8] [µg/mL] | IC50 (µg/mL), pseudovirus neutralization [9] [µg/mL] | IC50 (µg/mL), pseudovirus neutralization [10] [µg/mL] | IC50 (µg/mL), pseudovirus neutralization [11] [µg/mL] | IC50 (µg/mL), pseudovirus neutralization [12] [µg/mL] | IC50 (µg/mL), pseudovirus neutralization [13] [µg/mL] | other results
1 | 5345_I01 (PGT-137) (antibody) | 0.1 | 41.7 | > 50 | 0.228 | > 50 | > 50 | > 50 | 34.9 | > 50 | > 50 | > 50 | > 50 | 0.126 | > 50 | 
2 | 5114_A19 (PGT-128) (antibody) | 0.1 | 0.019 | > 50 | 0.313 | > 50 | > 50 | > 50 | 0.319 | 0.004 | > 50 | 0.995 | > 50 | 0.01 | 8.21 | 
3 | 5329_C19 (PGT-136) (antibody) | 0.2 | 8.11 | > 50 | 45.2 | > 50 | > 50 | > 50 | > 50 | > 50 | > 50 | > 50 | > 50 | 44.3 | > 50 | IC50 (neutralizing activity, pseudovirus) [14]: > 10 µg/mL; IC50 (neutralizing activity, pseudovirus) [15]: > 10 µg/mL; IC50 (neutralizing activity, pseudovirus) [16]: 0.0065 µg/mL; IC50 (neutralizing activity, pseudovirus) [17]: > 10 µg/mL; IC50 (neutralizing activity, pseudovirus) [18]: 0.0135 µg/mL; neutralization IC50 (pseudovirus) [19]: 0.738 µg/mL; IC50 (neutralizing activity, pseudovirus) [20]: 0.0915 µg/mL; IC50 (neutralizing activity, pseudovirus) [21]: > 10 µg/mL; IC50 (neutralizing activity, pseudovirus) [22]: > 10 µg/mL; IC50 (neutralizing activity, pseudovirus) [23]: > 10 µg/mL; IC50 (neutralizing activity, pseudovirus) [24]: > 10 µg/mL; IC50 (neutralizing activity, pseudovirus) [25]: > 10 µg/mL; IC50 (neutralizing activity, pseudovirus) [26]: > 10 µg/mL; IC50 (neutralizing activity, pseudovirus) [27]: > 10 µg/mL; IC50 (neutralizing activity, pseudovirus) [28]: > 10 µg/mL
